The values below are quoted from earlier work in article PMC8131754.

pKd: −log10 of the molar value.

The target of the series is SRC-2 coactivator peptide (Homo sapiens) (UniProt Q15596).
Sequence of UniProt Q15596 (Q15596 2-1464): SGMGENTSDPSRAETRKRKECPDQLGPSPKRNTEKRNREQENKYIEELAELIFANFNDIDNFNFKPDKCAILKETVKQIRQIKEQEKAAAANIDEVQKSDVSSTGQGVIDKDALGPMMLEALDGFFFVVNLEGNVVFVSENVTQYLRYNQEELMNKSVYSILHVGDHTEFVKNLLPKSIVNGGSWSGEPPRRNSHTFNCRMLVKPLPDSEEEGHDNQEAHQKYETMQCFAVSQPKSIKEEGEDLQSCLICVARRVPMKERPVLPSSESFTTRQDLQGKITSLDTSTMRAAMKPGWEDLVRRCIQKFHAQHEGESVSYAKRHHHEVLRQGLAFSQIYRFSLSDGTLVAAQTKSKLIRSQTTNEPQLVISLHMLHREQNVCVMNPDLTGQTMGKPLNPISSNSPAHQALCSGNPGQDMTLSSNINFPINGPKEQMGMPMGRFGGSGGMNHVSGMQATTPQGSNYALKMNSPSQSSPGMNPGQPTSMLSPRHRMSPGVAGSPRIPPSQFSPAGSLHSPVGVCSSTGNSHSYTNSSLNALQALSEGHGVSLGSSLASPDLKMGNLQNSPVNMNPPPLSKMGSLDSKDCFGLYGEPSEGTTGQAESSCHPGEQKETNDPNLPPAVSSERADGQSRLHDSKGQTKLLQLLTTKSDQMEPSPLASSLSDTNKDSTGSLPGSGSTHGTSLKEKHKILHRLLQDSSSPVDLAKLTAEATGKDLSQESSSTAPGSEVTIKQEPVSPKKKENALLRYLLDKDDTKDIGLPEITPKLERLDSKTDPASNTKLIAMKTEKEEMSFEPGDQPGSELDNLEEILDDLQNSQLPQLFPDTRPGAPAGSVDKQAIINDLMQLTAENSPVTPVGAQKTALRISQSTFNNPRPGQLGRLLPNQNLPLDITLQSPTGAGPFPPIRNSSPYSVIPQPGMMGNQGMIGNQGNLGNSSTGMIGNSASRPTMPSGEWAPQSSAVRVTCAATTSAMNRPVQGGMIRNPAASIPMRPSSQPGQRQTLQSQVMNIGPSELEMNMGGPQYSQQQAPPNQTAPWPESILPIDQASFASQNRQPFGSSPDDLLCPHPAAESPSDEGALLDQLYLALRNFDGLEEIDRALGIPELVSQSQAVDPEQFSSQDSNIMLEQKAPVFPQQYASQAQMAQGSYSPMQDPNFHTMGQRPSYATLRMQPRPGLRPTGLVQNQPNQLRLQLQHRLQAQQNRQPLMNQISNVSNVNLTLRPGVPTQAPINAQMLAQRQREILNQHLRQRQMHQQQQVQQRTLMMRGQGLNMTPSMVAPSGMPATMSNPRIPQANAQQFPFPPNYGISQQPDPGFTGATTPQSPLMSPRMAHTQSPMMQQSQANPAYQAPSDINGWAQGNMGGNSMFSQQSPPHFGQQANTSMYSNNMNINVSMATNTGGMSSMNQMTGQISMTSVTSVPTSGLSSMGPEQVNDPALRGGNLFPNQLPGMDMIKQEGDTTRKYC

For the substance “Estrogen receptor α LBD (from UniProt P03372)”, the negative logarithm of the Kd (pKd) is 6.76.

One may read the pKd as −log10 of the Kd, conventionally taken in molar units.
